This experiment addresses soluble γc protein (sγc), recombinant murine (mouse). Briefly: immunoprecipitation and immunoblot, SDS-PAGE under reducing and non-reducing conditions; culture supernatant of sγc expressing 293 T cells immunoprecipitated and immunoblotted with anti-γc ectodomain antibodies; resolved with (+ DTT) or without reduction. (In general: Immunoblotting shows a protein as a band on a membrane.)

Data on 1 substance can be found in PMC5105068.

For the substance “soluble γc protein (sγc), recombinant murine (natural protein)”, the stoichiometry N is 2.

Broadly, the stoichiometry N is a count of units in the complex or per binding partner.
